Reference: patent publication US20180155451A1 (published 2018)
Where a chain is given by its changes, count along the chain named. Names may count otherwise.

T1: FcgRIIa H (human, UniProt P12318 34-217)
T1 construct: extracellular domain; also called FcγRIIa H; FcγRIIa type H; not shown: His tag attached to the C terminus
T1 sequence (looked up): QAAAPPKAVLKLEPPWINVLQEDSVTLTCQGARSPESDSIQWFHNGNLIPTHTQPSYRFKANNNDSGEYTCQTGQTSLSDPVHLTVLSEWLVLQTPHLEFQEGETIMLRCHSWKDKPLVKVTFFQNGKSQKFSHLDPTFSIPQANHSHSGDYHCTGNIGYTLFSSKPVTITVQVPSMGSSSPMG

T2: FcgRIIa R (human, UniProt P12318 34-217)
T2 construct: extracellular domain; also called FcγRIIa R; FcγRIIa type R; not shown: His tag attached to the C terminus
T2 sequence (looked up): T1 sequence (looked up) with H134R

T3: FcgRIIb (human, UniProt P31994 43-217)
T3 construct: extracellular domain; also called FcγRIIb; not shown: His tag attached to the C terminus
T3 sequence (looked up): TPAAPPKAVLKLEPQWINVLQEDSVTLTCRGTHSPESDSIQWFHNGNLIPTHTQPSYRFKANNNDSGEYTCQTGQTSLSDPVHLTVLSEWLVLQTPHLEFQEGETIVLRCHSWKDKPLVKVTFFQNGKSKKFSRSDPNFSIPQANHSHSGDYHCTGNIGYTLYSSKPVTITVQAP

B1: H240-Kn061 (S239V)/H240-Hl071/L73-k0 (antibody, human IgG1, kappa)
heavy 1: QDQLVQSGAEVKKPGASVKVSCKASGFNIKDTYIQWVRQAPGQGLEWMGRIDPLRKQTKYREKFEGRVTITADTSTNTAYMELSSLRSEDTAVYYCVRSGREFDYWGQGTLVTVSSASTKGPSVFPLAPSSKSTSGGTAALGCLVKDYFPEPVTVSWNSGALTSGVHTFPAVLQSSGLYSLSSVVTVPSSSLGTQTYICNVNHKPSNTKVDKKVEPKSCDKTHTCPPCPAPEYYWGPVVFLFPPKPKDTLMISRTPEVTCVVVDVSDEDPEVKFNWYVDGVEVHNAKTKPREEQYNATYRVVSVLTVLHQDWLNGKEYKCKVSNKALPAPIEKTISKAKGQPREPQVCTLPPSRDELTKNQVSLWCLVKGFYPSDIAVEWESNGQPENNYKTTPPVLDSDGSFFLYSKLTVDKSRWQQGNVFSCSVMHEALHNHYTQKSLSLSP
heavy 2: QDQLVQSGAEVKKPGASVKVSCKASGFNIKDTYIQWVRQAPGQGLEWMGRIDPLRKQTKYREKFEGRVTITADTSTNTAYMELSSLRSEDTAVYYCVRSGREFDYWGQGTLVTVSSASTKGPSVFPLAPSSKSTSGGTAALGCLVKDYFPEPVTVSWNSGALTSGVHTFPAVLQSSGLYSLSSVVTVPSSSLGTQTYICNVNHKPSNTKVDKKVEPKSCDKTHTCPPCPAPELLGGPSVFLFPPKPKDTLMISRTPEVTCVVVDVSHEDPEVKFNWYVDGVEVHNAKTKPREEQYNSTYRVVSVLTVLHQDWLNGKEYKCKVSNDALPMPIEETISKAKGQPREPQVYTLPPSRCELTKNQVSLSCAVKGFYPSDIAVEWESNGQPENNYKTTPPVLDSDGSFFLVSKLTVDKSRWQQGNVFSCSVMHEALHNHYTQKSLSLSP
light: DIQMTQSPSSLSASVGDRVTITCRASQDIHKYIAWYQQKPGQAPRLLIQYTSTLQPGVPSRFSGSGSGTDYTFTISSLQPEDIATYYCLQYEQLRTFGGGTKVEIKRTVAAPSVFIFPPSDEQLKSGTASVVCLLNNFYPREAKVQWKVDNALQSGNSQESVTEQDSKDSTYSLSSTLTLSKADYEKHKVYACEVTHQGLSSPVTKSFNRGEC
B2: H240-Kn061/H240-Hl071 (V240H)/L73-k0 (antibody, human IgG1, kappa)
heavy 1: B1 heavy 1 with V238S
heavy 2: B1 heavy 2 with V239H
light: B1 light
B3: H240-Kn061 (Y234L)/H240-Hl071/L73-k0 (antibody, human IgG1, kappa)
heavy 1: B1 heavy 1 with Y233L, V238S
heavy 2: B1 heavy 2
light: B1 light
B4: H240-Kn061 (Y234I)/H240-Hl071/L73-k0 (antibody, human IgG1, kappa)
heavy 1: B1 heavy 1 with Y233I, V238S
heavy 2: B1 heavy 2
light: B1 light
B5: H240-Kn061/H240-Hl071 (F241N)/L73-k0 (antibody, human IgG1, kappa)
heavy 1: B1 heavy 1 with V238S
heavy 2: B1 heavy 2 with F240N
light: B1 light

Target: T1, FcgRIIa H
Assay: SPR (Biacore); KD of H240-Kn061/H240-Hl071/L73-k0 divided by KD of the variant
Protocol: (§1) The antibodies were assessed for the binding to each FcgR. […] The resultant value was defined as relative KD, and used as an assessment indicator.
(§2) Analysis of interaction between obj ective antibody and the FcγR was carried out using Biacore T100 (GE Healthcare), Biacore T200, Biacore A100, and Biacore 4000. HBS-EP+ (GE Healthcare) was used as the running buffer, and the measurement temperature was set to 25° C. Chips produced by immobilizing the antigen peptide by the amine coupling method to a Series S sensor Chip CM5 (GE Healthcare), chips produced by allowing preliminarily biotinylated antigen peptides to interact with and immobilize onto a Series S Sensor Chip SA (certified) (GE Healthcare), chips produced by immobilizing Protein L (ACTIGEN, BioVision) to Series S Sencor Chip CM5 (GE Healthcare), or chips produced by immobilizing Protein A/G (Thermo Scientific) to Series S Sencor Chip CM5 (GE Healthcare) were used. Antibodies of interest were captured onto these chips, and allowed to interact to each FcγR diluted with running buffer.

Row | Relative KD | Binder
1 | 2.4 | B1
2 | 0.8 | B2
3 | 1.5 | B3
4 | 2.6 | B4
5 | 3.5 | B5

Target: T4, FcgRIIIa F (human, UniProt P08637 17-208)
T4 construct: extracellular domain; also called FcγRIIIa F; 3aF; not shown: His tag attached to the C terminus
T4 sequence (P08637 17-208): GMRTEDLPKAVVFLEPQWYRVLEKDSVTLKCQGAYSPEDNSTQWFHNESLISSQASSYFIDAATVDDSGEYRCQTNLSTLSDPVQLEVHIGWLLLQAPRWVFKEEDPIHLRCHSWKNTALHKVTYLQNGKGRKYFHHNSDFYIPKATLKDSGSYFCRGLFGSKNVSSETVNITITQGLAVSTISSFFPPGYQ
Assay: as above
Protocol: as §1, §2

Row | Relative KD | Binder
6 | 2.4 | B1
7 | 1.3 | B2
8 | 1.1 | B3
9 | 1.2 | B4
10 | 0.8 | B5

Target: T2, FcgRIIa R
Assay: as above
Protocol: as §1, §2

Row | Relative KD | Binder
11 | 4.2 | B1
12 | 0.7 | B2
13 | 2.2 | B3
14 | 4.1 | B4
15 | 3.8 | B5

Target: T5, FcgRIIIa V (human, UniProt P08637 17-208)
T5 construct: extracellular domain; also called FcγRIIIa V; not shown: His tag attached to the C terminus
T5 sequence (P08637 17-208 F176V limits assumed): as the sequence (P08637 17-208) above, with F160V counted along it
Assay: as above
Protocol: as §1, §2

Row | Relative KD | Binder
16 | 2.9 | B1
17 | 1 | B2
18 | 1.2 | B3
19 | 1.3 | B4
20 | 0.7 | B5

Target: T3, FcgRIIb
Assay: as above
Protocol: as §1, §2

Row | Relative KD | Binder
21 | 3.4 | B1
22 | 0.3 | B2
23 | 3.5 | B3
24 | 7.7 | B4
25 | 1.1 | B5
